Here are results for one substance from US5981483A, “Compositions comprising modulators of cytokines of the TGF-β superfamily” (Mount Sinai Hospital Corporation, priority 1997, dated 1999).

One experiment relates to Mv1Lu cells. Nature of the experiment: 3H-Thymidine incorporation in Mv1Lu cells: proliferation / growth. It is filed as cell-based, mink. The note with it: absence of cytokines, FIG. 12; read-out: IC50, stimulated proliferation of Mv1Lu cells.
The target in the next experiment is T1, BMP-2 (Homo sapiens, UniProt P12643).
T1 construct: Genetics Institute, Cambridge, Mass; (gift)
T1 sequence (P12643 283-396): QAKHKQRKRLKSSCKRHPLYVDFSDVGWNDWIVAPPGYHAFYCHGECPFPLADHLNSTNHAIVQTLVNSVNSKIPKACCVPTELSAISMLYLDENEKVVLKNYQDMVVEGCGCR
The experiment can be described thus: BIAcore surface plasmon resonance, binding to immobilized BMP-2. The note with it: ligand BMP-2. On the procedure:
(§1) In this system, a purified protein serving as the ligand is covalently coupled to a carboxymethylated dextran surface, and binding molecules (i.e. the analyte) are passed in a fluid phase across the surface. Binding of the analyte to ligand causes a change in reflected light which is directly proportional to mass bound, and is measured in arbitrary response units (R.U.). Analyte-ligand binding is observed as both increasing response with time during the injection of analyte, and the difference in the position of the baseline before and after injection.
(§2) Schuster, R. V. Swanson, L. A. Alex, R. B. Bourret, M. I. Simon, Nature 365, 343 (1993). 1000 R.U. equals approximately 1 ng/mm^2. The running buffer was 20 mM Hepes (pH 7.2), 150 mM NaCl and the flow rate for all sensorgrams was 3 μl/min.
Regeneration of the surface to remove bound analyte was done by injection of 10 μl of 20 mM NaOH. To cyclize TRH1 peptides, the material was reduced with 5 mM DTT then brought to a final concentration of 60 μM in 25 mM ammonium acetate (pH 8.5). After stirring in the dark for 30 min at 20° C. with 30 mM potassium ferricyanide, the peptide was mixed with AG3-X4A resin (BioRad), filtered, lyophilization and desalted on a 50×2.5 cm column of Biogel P2 (Pharmacia) developed in water, and further purified by reverse phase HPLC.
Injection volumes were 36 μl for FIG. 2, 4 and 5 and 45 μl for FIG. 3. […] Protein concentrations in each experiment were (FIGS. 2 and 3), 2, 5, 10, 20, 30, 40 μM; (FIG. 4), 0.21, 0.31, 0.41, 0.62, 0.82, 1.24 μM; (FIG. 5), 0.22, 0.29, 0.44, 0.59, 0.88 μM. R.U. for the immobilized cytokine in each experiment was 2850 R.U. for FIGS. 2 and 3; 7450 R.U. for FIG. 4, and 5300 R.U., for FIG. 5 respectively.
Data was analyzed using the BIA-evaluation software (Pharmacia Biosensor). The association rate constant, kass, was calculated by first plotting the change in response with time versus response (i.e. dR/dT vs R). When the slope of the line from this graph is plotted versus analyte concentration (i.e d(dR/dT)/dR vs C), kass is obtained from the slope of the line. The dissociation rate constant, kdiss, is obtained during the decrease in response with time after analyte injection is discontinued. Specifically, kdiss was obtained from the slope of the line in a plot of ln(Rt1 /Rtn) vs time. The affinity constants were calculated from KD =kdiss /kass. Variance for kass is standard error of the linear regression plot, and for kdiss values are the mean ± range of 3 or more independent injections.

A further experiment has as its target T2, TGF-β1 (Homo sapiens, UniProt P01137).
T2 construct: The mature processed cytokines produced from the members of the gene family show almost 100% amino acid identity between species; purchased Collaborative Research (Bedford, Mass.)
The experiment can be described thus: 3H-Thymidine incorporation in Mv1Lu cells: neutralization of the antiproliferative activity of TGF-β1. It is filed as cell-based. Here is the method: Mv1Lu cells were seeded at 20,000 cells/well in a 96 well plate containing 0.2% FCS in α-MEM and incubated with the indicated concentrations of proteins for 18 hr. The cells were then pulsed with 8 μCi/ml methyl-^3 H-thymidine (NEN, Boston, Mass.) for 6 hr. Cells were trypsinized, harvested onto filtermats and counted in a β-Counter. Percent neutralization is defined as incorporation in the presence of 12 pM TGF-β1 alone set at 0%, and incorporation without additions as 100%. The difference in ^3 H-thymidine incorporation between 0% and 100% was 7.5 fold. Each point in FIG. 1 and FIG. 12 represents the mean of duplicate determinations, and the results are representative of three experiments. […] Before use, bovine thyroglobulin was spun twice in a centricon (M.W. cutoff of 10,000 Da) micro-concentrator (Amicon, Beverly, Mass.) to remove any excess Iodine and T3/T4 thyroid hormones.

The target of a further experiment is T3, BMP-4 (Homo sapiens, UniProt P12644).
T3 sequence (P12644 293-408): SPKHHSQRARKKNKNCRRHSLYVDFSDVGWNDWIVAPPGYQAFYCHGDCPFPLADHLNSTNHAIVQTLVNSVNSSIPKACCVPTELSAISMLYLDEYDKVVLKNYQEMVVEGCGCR
Nature of the experiment: BIAcore surface plasmon resonance, binding to immobilized BMP-4. The note with it: Table 2 (calculations repeated); ligand BMP-4; KD = kdiss/kass. On the procedure:
as §1, §2
Regeneration of the surface to remove bound analyte was done by injection of 10 μl of 20 mM NaOH. To cyclize TRH1 peptides, the material was reduced with 5 mM DTT then brought to a final concentration of 60 μM in 25 mM ammonium acetate (pH 8.5). […]
Data was analyzed using the BIA-evaluation software (Pharmacia Biosensor). The association rate constant, kass, was calculated by first plotting the change in response with time versus response (i.e. dR/dT vs R). […] The affinity constants were calculated from KD =kdiss /kass. […]

Another experiment has as its target T4, TGF-β1 binding to TβRII (Homo sapiens, UniProt P01137).
T4 construct: The mature processed cytokines produced from the members of the gene family show almost 100% amino acid identity between species; purchased R&D Systems
Nature of the experiment: Competition of TGF-β1 binding to immobilized TβRII (Quantikine ELISA). Particulars: 40 pM TGF-β1; fetuin 40 μM, TRH1 peptide from TβRII 20 μM; FIG. 14. On the procedure: Inhibition of TGF-β1 binding to TβRII was carried out using the Quantikine ELISA kit (R&D Systems). In particular, 96 well plates were pre-coated with the extracellular domain of TβRII. […] This was followed by a 5 minute incubation with the TβRII coated ELISA wells with shaking, washing as recommended, and a 1 hr incubation with the polyclonal anti-TGF-β1 antibody. Plates were developed as per the instructions, and determinations were made in triplicate.

Setting [1] is: Table 2 (calculations repeated).

T2 sequence (P01137 279-390 limits assumed): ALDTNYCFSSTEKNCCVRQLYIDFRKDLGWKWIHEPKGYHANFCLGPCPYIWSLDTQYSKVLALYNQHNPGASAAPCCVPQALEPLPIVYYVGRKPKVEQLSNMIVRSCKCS
T4 sequence (P01137 279-390 limits assumed): as above

For “Fetuin: Bovine fetal fetuin, glycoprotein obtained by ammonium sulfate fractionation of FCS and gel filtration (Sigma)”, the IC50 with Mv1Lu cells was 8 µM; in the experiment with TGF-β1 (18 pM human TGF-β1, FIG. 12, read-out: IC50, blocking of anti-proliferative activity of exogenously-added TGF-β1), approximately 3 µM. The kass in the experiment with BMP-2 (Table 1) is 1700 ± 300 M⁻¹ s⁻¹; with BMP-2 (Table 1, listed as fetuin), 1700 M⁻¹ s⁻¹; with BMP-2 (setting [1]), 2400 ± 1200 M⁻¹ s⁻¹. Besides, the kdiss with BMP-2 (Table 1, listed as fetuin) is 6.2e-05 s⁻¹; with BMP-2 (setting [1]) it was 6.5e-05 s⁻¹. The Kd is 0.027 µM with BMP-2 (Table 2 (calculations repeated), KD = kdiss/kass) and 0.12 µM with BMP-4. Further, the “Maximal effect, percent neutralization” value in the experiment with TGF-β1 (12 pM TGF-β1, FIG. 1) is on record as “approximately 150%”. For the same substance, in the experiment with TGF-β1 binding to TβRII, the “inhibition of TGF-β1 binding to immobilized recombinant TβRII” value is listed as “competitive inhibitors”.
